Measurements: patent US20230374153A1 (PARADIGM IMMUNOTERAPEUTICS, published 2023)
Read-outs that look alike come from different tables or passages of the source.

How the values were obtained:
[1] = target: T1, SARS-CoV-2 Spike Trimer, His Tag B.1.1.529/Omicron (ACRO Biosystems Cat. No. SPN-052Hz) (SARS-CoV-2, UniProt P0DTC2 16-1213)
[2] = target: T2, SARS-CoV-2 Delta variant B.1.617.2, RBD only (SARS-CoV-2, UniProt P0DTC2 319-537); experiment: SPR (Biacore T200, ACRO Biosystems), 1:1 model
T2 construct: domain: RBD; also called RBD of the Delta B.1.617.2 variant

[3] = target: T1, SARS-CoV-2 Spike Trimer, His Tag …; experiment: SPR (Biacore T200, ACRO Biosystems), 1:1 model
[4] = target: T3, SARS-CoV-2 (COVID-19) S protein RBD, His Tag B.1.1.529/Omicron (ACRO Biosystems Cat. No. SPD-052H3) (SARS-CoV-2, UniProt P0DTC2 319-537); experiment: SPR (Biacore T200, ACRO Biosystems), 1:1 model
T3 construct: domain: RBD; also called Omicron RBD only; Omicron variant RBD

[5] = target: SARS-CoV-2 Omicron BA.5 (live virus; spike protein) (SARS-CoV-2, UniProt P0DTC2 14-1273); experiment: cell-based or functional assay
[6] = target: T1, SARS-CoV-2 Spike Trimer, His Tag …; remark: listed apart in the source
[7] = target: T4, SARS-CoV-2 Omicron BA.2.75 spike protein trimer (SARS-CoV-2, UniProt P0DTC2 16-1213); experiment: SPR (Biacore T200, ACRO Biosystems), 1:1 model
T4 construct: also called Omicron subvariant BA2.75 spike trimer

[8] = target: SARS-CoV-2 Omicron BA.5 spike protein trimer (SARS-CoV-2, UniProt P0DTC2 16-1213); experiment: SPR (Biacore T200, ACRO Biosystems), 1:1 model
[9] = target: T1, SARS-CoV-2 Spike Trimer, His Tag …; remark: listed apart in the source
[10] = target: SARS-CoV-2 Omicron BA4.6 spike protein trimer (SARS-CoV-2, UniProt P0DTC2 16-1213); experiment: SPR (Biacore 8K, ACRO Biosystems), 1:1 model
[11] = target: SARS-CoV-2 Omicron XBB.1 spike protein trimer (SARS-CoV-2, UniProt P0DTC2 16-1213); experiment: SPR (Biacore 8K, ACRO Biosystems), 1:1 model
[12] = target: SARS-CoV-2 Omicron BQ.1.1 spike protein trimer (SARS-CoV-2, UniProt P0DTC2 16-1213); experiment: SPR (Biacore 8K, ACRO Biosystems), 1:1 model

B1: ACE2 LVE IgG Fc STR chimeric antibody (LiVE) (Fc fusion)
chain: QSTIEEQAKLFLDKFNVEAEDLFYQSSLASWNYNTNITEENVQNMNNAGDKWSAFLKEQSTLAQMYPLQEIQELTVKLQLQALQQNGSSVLSEDKSKRLNTILNTMSTIYSTGKVCNPDNPQECLLLEPGLNEIMANSLDYNERLWAWESWRSEVGKQLRPLYEEYVVLKNEMARANHYEDYGDYWRGDYEVNGVDGYDYSRGQLIEDVEHTFEEIKPLYEHLHAYVRAKLMNAYPSYISPIGCLPAHLLGDMWGRFWTNLYSLTVPFGQKPNIDVTDAMVDQAWDAQRIFKEAEKFFVSVGLPNMTQGFWENSMLTDPGNVQKAVCHPTAWDLGKGDFRILMCTKVTMDDFLTAHHEMGHIQYDMAYAAQPFLLRNGANEGFHEAVGEIMSLSAATPKHLKSIGLLSPDFQEDNETEINFLLKQALTIVGTLPFTYMLEKWRWMVFKGEIPKDQWMKKWWEMKREIVGVVEPVPHDETYCDPASLFHVSNDYSFIRYYTRTLYQFQFQEALCQAAKHEGPLHKCDISNSTEAGQKLFNMLRLGKSEPWTLALENVVGAKNMNVRPLLNYFEPLFTWLKDQNKNSFVGWSTDWSPYADQSIKVRISLKSALGDKAYEWNDNEMYLFRSSVAYAMRQYFLKVKNQMILFGEEDVRVANLKPRISFNFFVTAPKNVSDIIPRTEVEKAIRMSRSRINDAFRLNDNSLEFLGIQPTLGPPNQPPVSGGGGSGGGGSDKTHTCPPCPAPESTRGPSVFLFPPKPKDTLMISRTPEVTCVVVDVSHEDPEVKFNWYVDGVEVHNAKTKPREEQYNSTYRVVSVLTVLHQDWLNGKEYKCKVSNKALPAPIEKTISKAKGQPREPQVYTLPPSRDELTKNQVSLTCLVKGFYPSDIAVEWESNGQPENNYKTTPPVLDSDGSFFLYSKLTVDKSRWQQGNVFSCSVMHEALHNHYTQKSLSLSPGK
With B1 the Kd [1] was 0.144 nM, the koff [1] was 0.000153 s⁻¹ and the kon [1] was 1.06e+06 M⁻¹ s⁻¹. For the same binder, the Kd [2] was 0.554 nM, the Kd [3] was 0.144 nM and the Kd [4] was 0.308 nM. For the same binder, the “IC50 of inhibition of viral replication (human airway organoids)” value [5] was 0.0299 µg/mL and the Kd [6] was 0.114 nM.

B2: ACE2 LVE IgG Fc STR YTE chimeric antibody (LiVE Longer) (Fc fusion)
chain: QSTIEEQAKLFLDKFNVEAEDLFYQSSLASWNYNTNITEENVQNMNNAGDKWSAFLKEQSTLAQMYPLQEIQELTVKLQLQALQQNGSSVLSEDKSKRLNTILNTMSTIYSTGKVCNPDNPQECLLLEPGLNEIMANSLDYNERLWAWESWRSEVGKQLRPLYEEYVVLKNEMARANHYEDYGDYWRGDYEVNGVDGYDYSRGQLIEDVEHTFEEIKPLYEHLHAYVRAKLMNAYPSYISPIGCLPAHLLGDMWGRFWTNLYSLTVPFGQKPNIDVTDAMVDQAWDAQRIFKEAEKFFVSVGLPNMTQGFWENSMLTDPGNVQKAVCHPTAWDLGKGDFRILMCTKVTMDDFLTAHHEMGHIQYDMAYAAQPFLLRNGANEGFHEAVGEIMSLSAATPKHLKSIGLLSPDFQEDNETEINFLLKQALTIVGTLPFTYMLEKWRWMVFKGEIPKDQWMKKWWEMKREIVGVVEPVPHDETYCDPASLFHVSNDYSFIRYYTRTLYQFQFQEALCQAAKHEGPLHKCDISNSTEAGQKLFNMLRLGKSEPWTLALENVVGAKNMNVRPLLNYFEPLFTWLKDQNKNSFVGWSTDWSPYADQSIKVRISLKSALGDKAYEWNDNEMYLFRSSVAYAMRQYFLKVKNQMILFGEEDVRVANLKPRISFNFFVTAPKNVSDIIPRTEVEKAIRMSRSRINDAFRLNDNSLEFLGIQPTLGPPNQPPVSGGGGSGGGGSDKTHTCPPCPAPESTRGPSVFLFPPKPKDTLYITREPEVTCVVVDVSHEDPEVKFNWYVDGVEVHNAKTKPREEQYNSTYRVVSVLTVLHQDWLNGKEYKCKVSNKALPAPIEKTISKAKGQPREPQVYTLPPSRDELTKNQVSLTCLVKGFYPSDIAVEWESNGQPENNYKTTPPVLDSDGSFFLYSKLTVDKSRWQQGNVFSCSVMHEALHNHYTQKSLSLSPGK
In the case of B2, the Kd [7] is reported as 0.000133 nM, the Kd [8] is reported as 0.00543 nM and the Kd [3] is reported as 0.073 nM. For the same binder, the Kd [4] was 0.402 nM, the “IC50 of inhibition of viral replication (human airway organoids)” value [5] was 0.0269 µg/mL and the koff [9] was 0.000117 s⁻¹. It also gave a kon [9] of 1.59e+06 M⁻¹ s⁻¹, a Kd [10] of 0.845 nM and a Kd [11] of 0.215 nM. For the same binder, the Kd [12] was 0.00181 nM and the Kd [6] was 0.0734 nM.
